The record followed here is publication PMC2995063.

Assay in all cases: protection of ribosome-bound eEF2 from [14C]ADP-ribosylation by diphtheria toxin
The target of test [1] is Salt washed yeast 80S ribosomes with ribosomal protein L3 K236A (yeast (S. cerevisiae)) (UniProt P14126).
In test [2] the target is Salt washed yeast 80S ribosomes with wild-type ribosomal protein L3 (yeast (S. cerevisiae)) (UniProt P14126).
In test [3] the target is Salt washed yeast 80S ribosomes with ribosomal protein L3 R247A (yeast (S. cerevisiae)) (UniProt P14126).
The target in test [4] is Salt washed yeast 80S ribosomes with ribosomal protein L3 K236A/R247A (yeast (S. cerevisiae)) (UniProt P14126).
Test [5] deals with Salt washed yeast 80S ribosomes with ribosomal protein L3 K236A/K237A (yeast (S. cerevisiae)) (UniProt P14126).
For test [6], the target named is Salt washed yeast 80S ribosomes with ribosomal protein L3 K241A/R244A (yeast (S. cerevisiae)) (UniProt P14126).
The target in test [7] is Salt washed yeast 80S ribosomes with ribosomal protein L3 K237A (yeast (S. cerevisiae)) (UniProt P14126).
Test [8] has as its target Salt washed yeast 80S ribosomes with ribosomal protein L3 R232A (yeast (S. cerevisiae)) (UniProt P14126).

For “Eukaryotic elongation factor 2 (eEF2), 6xHis-tagged (from UniProt P32324 1-842) (natural protein)”, the Kd in test [1] worked out at 312 nM; in test [2] it was 383 nM; in test [3], 46.6 nM; in test [4], 110 nM; in test [5] it was 84 nM; in test [6], 229 nM. In addition, the Kd worked out at 342 nM in test [7] and 341 nM in test [8].
